Data on one molecule can be found in US20250009799A1 (Amgen, published 2025).

This experiment concerns the target putative cross-reactive peptide arising from SH2D3A, on HLA-A*02:01 of T2 cells (human). The experiment is described as follows: cell-based or functional assay.

B1: TCR2 (TCR, V domains shown)
V domain 1: EDQVTQSPEALRLQEGESSSLNCSYTVSGLRGLFWYRQDPGKGPEFLFTLYSAGEEKEKERLKATLTKKESFLHITAPKPEDSATYLCAVQAWGGGSQGNLIFGKGTKLSVKP
V domain 2: DSGVTQTPKHLITATGQRVTLRCSPRSGDLSVYWYQQSLDQGLQFLIQYYNGEERAKGNILERFSAQQFPDLHSELNLSSLELGDSALYFCASSAGDRGYEQYFGPGTRLTVTE
Take B1: the “EC50 in T2/peptide TDCC assay, against the DCAF4L2 target peptide” value came out at 87 fold.
